Results as given in patent US7109299 (dated 2006).
Bridge positions count the residues as written; N and C are the ends. Square brackets hold non-standard residues; d marks the D form. Ends that are not written are not given here. Dap = NC[C@H](N)C(=O)O; Ahx = NCCCCCC(=O)O

B1: dimer of (H)-EGYVCVEWARCPTCR-(OH) (peptide)
peptide: H-EGYVCVEWARCPTCR-OH
modifications: disulfide (positions not given here); also: dimer, intramolecular and intermolecular disulfide linkages, places not given here
B2: AF18748, synthetic dimer of (H)-TGGGDGYVCVEWARCPTCK-(OH) (peptide)
peptide: H-TGGGDGYVCVEWARCPTCK-OH
modifications: disulfide 15-18; also: homodimer via interchain Cys9-Cys9 disulfide
B3: dimer of (Ac)-EGYVCVEWARCPTCR-(NH2) (peptide)
peptide: Ac-EGYVCVEWARCPTCR-NH2
modifications: disulfide (positions not given here); also: dimer, intramolecular and intermolecular disulfide linkages, places not given here
B4: dimer of (H)-GYVCVEWARCPTCR-(OH) (peptide)
peptide: H-GYVCVEWARCPTCR-OH
modifications: disulfide (positions not given here); also: dimer, intramolecular and intermolecular disulfide linkages, places not given here
B5: dimer of (H)-EGYVCVEWARCPTCK-(OH) (peptide)
peptide: H-EGYVCVEWARCPTCK-OH
modifications: disulfide (positions not given here); also: dimer, intramolecular and intermolecular disulfide linkages, places not given here
B6: dimer of (Ahx)-EGYVCVEWARCPTCR-(NH2) (peptide)
peptide: [Ahx]EGYVCVEWARCPTCR-NH2
modifications: disulfide (positions not given here); also: dimer, intramolecular and intermolecular disulfide linkages, places not given here
B7: dimer of (H)-EGYVCVEWARCPTCG-(NH2) (peptide)
peptide: H-EGYVCVEWARCPTCG-NH2
modifications: disulfide (positions not given here); also: dimer, intramolecular and intermolecular disulfide linkages, places not given here
B8: dimer of (H)-EGYVCVEWARCPTCR-(NH2) (peptide)
peptide: H-EGYVCVEWARCPTCR-NH2
modifications: disulfide (positions not given here); also: dimer, intramolecular and intermolecular disulfide linkages, places not given here
B9: dimer of (Ac)-EGYVCVEWAACPTCR-(NH2) (peptide)
peptide: Ac-EGYVCVEWAACPTCR-NH2
modifications: disulfide (positions not given here); also: dimer, intramolecular and intermolecular disulfides, places not given here
B10: dimer of two chains of residues 36-50 of SEQ ID NO: 9 (structure only in drawing CHEM-US-00014) (peptide)
peptide: Ac-EGYV[Dap]VEWARCPTCR-NH2
modifications: cysteine pairing not given here; also: homodimer, link between chains only in drawing
B11: dimer of (Ac)-EGYVCVEWARCPTCK-(NH2) (peptide)
peptide: Ac-EGYVCVEWARCPTCK-NH2
modifications: disulfide (positions not given here); also: dimer, intramolecular and intermolecular disulfide linkages, places not given here
B12: dimer of (H)-EGYVCVEFARCPTCG-(NH2) (peptide)
peptide: H-EGYVCVEFARCPTCG-NH2
modifications: disulfide (positions not given here); also: dimer, intramolecular and intermolecular disulfide linkages, places not given here
B13: dimer of (H)-GYVCVEFARCPTCG-(NH2) (peptide)
peptide: H-GYVCVEFARCPTCG-NH2
modifications: disulfide (positions not given here); also: dimer, intramolecular and intermolecular disulfide linkages, places not given here
B14: dimer of (H)-EGYVCVEFARCPTCR-(OH) (peptide)
peptide: H-EGYVCVEFARCPTCR-OH
modifications: disulfide (positions not given here); also: dimer, intramolecular and intermolecular disulfide linkages, places not given here

These binders were tested against T1, native IL-5R α/β complex on cells (TF-1 cells; human eosinophils) (human, UniProt Q01344 21-420; P32927 17-897) (assay: cell-based or functional assay).
T1 sequence (looked up) 1: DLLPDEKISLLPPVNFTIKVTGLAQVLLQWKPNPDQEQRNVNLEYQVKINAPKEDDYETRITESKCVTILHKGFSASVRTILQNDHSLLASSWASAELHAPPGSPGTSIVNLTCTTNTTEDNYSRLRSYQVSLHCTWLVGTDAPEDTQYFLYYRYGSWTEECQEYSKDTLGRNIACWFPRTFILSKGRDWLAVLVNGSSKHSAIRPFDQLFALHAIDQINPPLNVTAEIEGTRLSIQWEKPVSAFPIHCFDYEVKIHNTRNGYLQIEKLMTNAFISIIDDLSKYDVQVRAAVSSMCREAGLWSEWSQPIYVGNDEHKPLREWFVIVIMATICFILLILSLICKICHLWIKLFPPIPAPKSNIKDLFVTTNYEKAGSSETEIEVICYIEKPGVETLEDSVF
T1 sequence (looked up) 2: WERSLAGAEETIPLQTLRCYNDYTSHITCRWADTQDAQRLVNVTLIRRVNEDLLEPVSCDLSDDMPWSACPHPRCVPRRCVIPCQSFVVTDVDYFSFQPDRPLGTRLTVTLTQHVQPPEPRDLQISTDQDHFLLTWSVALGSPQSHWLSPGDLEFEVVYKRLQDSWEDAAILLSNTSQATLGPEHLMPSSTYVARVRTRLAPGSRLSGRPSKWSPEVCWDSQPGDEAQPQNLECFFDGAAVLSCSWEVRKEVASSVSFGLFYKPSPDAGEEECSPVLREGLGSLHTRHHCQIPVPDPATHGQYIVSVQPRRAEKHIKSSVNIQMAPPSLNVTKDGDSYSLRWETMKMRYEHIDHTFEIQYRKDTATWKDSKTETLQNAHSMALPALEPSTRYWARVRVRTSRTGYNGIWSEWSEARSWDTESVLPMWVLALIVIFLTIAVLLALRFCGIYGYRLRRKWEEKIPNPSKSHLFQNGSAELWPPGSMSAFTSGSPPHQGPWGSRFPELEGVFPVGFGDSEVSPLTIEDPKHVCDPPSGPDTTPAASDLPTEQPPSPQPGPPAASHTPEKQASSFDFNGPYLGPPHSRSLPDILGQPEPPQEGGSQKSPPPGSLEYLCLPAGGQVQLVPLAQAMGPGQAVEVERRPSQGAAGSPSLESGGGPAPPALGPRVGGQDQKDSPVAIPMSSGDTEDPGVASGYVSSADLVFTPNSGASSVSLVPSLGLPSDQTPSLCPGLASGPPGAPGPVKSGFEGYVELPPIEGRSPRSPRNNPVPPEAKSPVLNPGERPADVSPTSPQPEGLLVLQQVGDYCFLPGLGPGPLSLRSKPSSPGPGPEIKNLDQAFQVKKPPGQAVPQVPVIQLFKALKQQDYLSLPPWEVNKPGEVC

B1 and B2 are the same in “Microphysiometer pIC50 (block of the TF-1 cell response to IL-5)” value (“Microphysiometer pIC50” for short): 9.6 for the first, 9.6 for the second.

B3 and B4 are the same in “Microphysiometer pIC50” value: 8.4 for the first, 8.4 for the second.

Compared with B5, B6 is lower in “Microphysiometer pIC50” value: 9.2 for the first, 9 for the second.

B7 and B8 are the same in “Microphysiometer pIC50” value: 9.1 for the first, 9.1 for the second.

Compared with B9, B10 is lower in “Microphysiometer pIC50” value: 6.9 for the first, 6.5 for the second.

For B11, the “Microphysiometer pIC50” value was 8.5.

Each binder was assayed against IL-5RαECD, extracellular domain (ECD) of the human IL-5 receptor α chain, soluble (human, UniProt Q01344 21-342) (assay: scintillation proximity competition assay, dimer against 20 pM [125I] IL-5 on IL-5Rα coated beads).
Method: (§1) Binding affinities of synthetic peptides for IL-5Rα were measured in a scintillation proximity assay (SPA) using radio-iodinated IL-5. Streptavidin coated SPA beads (Amersham) were suspended in IL-5 binding buffer (phosphate buffered saline, 0.1% bovine serum albumin, 0.2% NaN_3) at 2 mg beads/ml of buffer. Biotinylated mAb 179 was adsorbed onto the beads at a ratio of 2 μg Ab/mg beads by incubating the beads and antibody with agitation for at least 2 h. at 4°. The beads were pelleted at 2500 rpm and resuspended at 2 mg/ml in binding buffer. Soluble IL-5Rα was then adsorbed onto the beads by diluting a solution of soluble receptor harvest 1:500 into the bead suspension and incubating with agitation for 2 hr at 4°. The beads were again pelleted at 2500 rpm and resuspended at 2 mg/ml in binding buffer. Competition binding assays were carried out in 100 μl reactions in white polystyrene microtiter plates. […] IL-5 (Amersham). The plates were incubated at room temperature for 1 hour with agitation, then centrifuged for 5 min at 1500 rpm followed by scintillation counting on a Topcount instrument (Packard). […] IL-5 bound in the absence of any competitor. […] IL-5 bound in the presence of 30 nM IL-5. […] IL-5 binding by 50% (IC$50$). In each instance, the dimer has both intramolecular and intermolecular disulfide linkages as shown generically below: […]

First: B4
Second: B5
The “SPA pIC50” value of the first is lower: 8.2 for the first, 8.7 for the second.

First: B12
Second: B13
The “SPA pIC50” value of the first is higher: 6.6 for the first, 6.1 for the second.

These binders were tested against T2, IL-5RαECD, extracellular domain (ECD) of the human IL-5 receptor α chain, soluble (human, UniProt Q01344 21-342) in the same assay as above.
T2 construct: extracellular domain; Captured through mAb 179 (anti-HPAP tail) in the plate, SPA and bead assays; also called soluble IL-5Rα; IL-5 receptor alpha chain extracellular domain
T2 sequence (Q01344 whole entry, looked up): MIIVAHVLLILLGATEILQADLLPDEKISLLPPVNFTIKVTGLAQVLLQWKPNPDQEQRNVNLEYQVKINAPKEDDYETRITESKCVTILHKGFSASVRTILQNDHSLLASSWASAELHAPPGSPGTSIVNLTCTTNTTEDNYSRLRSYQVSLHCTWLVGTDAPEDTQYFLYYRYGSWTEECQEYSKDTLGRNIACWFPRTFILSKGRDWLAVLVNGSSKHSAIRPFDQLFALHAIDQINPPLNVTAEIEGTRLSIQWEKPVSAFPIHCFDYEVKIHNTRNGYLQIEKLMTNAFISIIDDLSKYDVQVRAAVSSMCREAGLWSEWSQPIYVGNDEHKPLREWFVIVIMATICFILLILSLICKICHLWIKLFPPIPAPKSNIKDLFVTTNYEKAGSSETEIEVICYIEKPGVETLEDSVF
Method: as §1

First: B1
Second: B2
The “SPA pIC50” value of the first is lower: 8.4 for the first, 9.1 for the second.

With B14 the “SPA pIC50” value was 6.8.
